The target of test [1] is wild-type SecA-SecYEG translocase (SecA bound to SecYEG-inverted inner membrane vesicles) (E. coli) (UniProt P10408). Description: co-sedimentation.
Test [2] deals with SecA(LCt) (locked C-tail) bound to SecYEG-inverted membrane vesicles (E. coli) (UniProt P10408). Description: co-sedimentation.
Test [3] deals with native PhoA (E. coli) [phosphatase: P00634]. The test is described as follows: native MS.
The target of test [4] is wild-type SecA-SecYEG translocase (SecA bound to SecYEG-inverted inner membrane vesicles) (E. coli, UniProt P10408;P0AGA2;P0AG96;P0AG99). The test is described as follows: co-sedimentation.
Sequence of wild-type SecA-SecYEG translocase (SecA bound to SecYEG-inverted inner membrane vesicles) (P10408 whole entry, chain 1 of 4): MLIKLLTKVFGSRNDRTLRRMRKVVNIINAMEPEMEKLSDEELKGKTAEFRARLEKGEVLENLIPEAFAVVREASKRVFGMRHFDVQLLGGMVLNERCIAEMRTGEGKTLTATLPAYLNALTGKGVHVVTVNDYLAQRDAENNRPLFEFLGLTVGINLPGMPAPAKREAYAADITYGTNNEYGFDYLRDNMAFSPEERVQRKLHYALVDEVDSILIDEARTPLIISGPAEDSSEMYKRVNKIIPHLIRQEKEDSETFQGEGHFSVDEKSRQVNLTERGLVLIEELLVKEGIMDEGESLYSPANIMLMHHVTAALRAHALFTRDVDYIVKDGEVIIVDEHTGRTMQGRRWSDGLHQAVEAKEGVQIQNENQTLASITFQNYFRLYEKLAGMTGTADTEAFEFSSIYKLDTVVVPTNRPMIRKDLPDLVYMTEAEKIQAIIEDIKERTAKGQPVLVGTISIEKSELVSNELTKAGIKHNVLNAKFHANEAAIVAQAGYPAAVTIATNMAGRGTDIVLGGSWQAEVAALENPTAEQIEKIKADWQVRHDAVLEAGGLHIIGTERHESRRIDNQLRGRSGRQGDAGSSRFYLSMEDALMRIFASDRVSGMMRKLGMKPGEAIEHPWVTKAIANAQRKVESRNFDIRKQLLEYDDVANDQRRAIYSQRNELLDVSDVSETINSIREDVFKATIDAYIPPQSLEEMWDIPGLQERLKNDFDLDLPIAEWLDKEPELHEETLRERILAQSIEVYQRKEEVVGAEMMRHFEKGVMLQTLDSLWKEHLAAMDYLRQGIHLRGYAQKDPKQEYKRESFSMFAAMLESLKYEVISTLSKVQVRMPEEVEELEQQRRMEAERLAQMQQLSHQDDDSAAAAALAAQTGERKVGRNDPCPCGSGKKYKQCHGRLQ
Sequence of wild-type SecA-SecYEG translocase (SecA bound to SecYEG-inverted inner membrane vesicles) (P0AGA2 whole entry, chain 2 of 4): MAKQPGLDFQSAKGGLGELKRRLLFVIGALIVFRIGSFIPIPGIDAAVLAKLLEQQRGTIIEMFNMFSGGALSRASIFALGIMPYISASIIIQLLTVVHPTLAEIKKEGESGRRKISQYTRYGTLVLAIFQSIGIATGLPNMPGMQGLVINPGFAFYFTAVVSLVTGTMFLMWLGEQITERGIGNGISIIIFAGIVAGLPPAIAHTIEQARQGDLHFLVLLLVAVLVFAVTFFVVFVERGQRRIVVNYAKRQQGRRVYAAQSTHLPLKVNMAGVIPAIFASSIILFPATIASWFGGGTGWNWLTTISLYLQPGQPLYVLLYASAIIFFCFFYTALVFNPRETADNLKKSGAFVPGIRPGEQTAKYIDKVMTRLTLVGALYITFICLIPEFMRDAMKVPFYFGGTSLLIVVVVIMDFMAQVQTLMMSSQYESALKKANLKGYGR
Sequence of wild-type SecA-SecYEG translocase (SecA bound to SecYEG-inverted inner membrane vesicles) (P0AG96 whole entry, chain 3 of 4): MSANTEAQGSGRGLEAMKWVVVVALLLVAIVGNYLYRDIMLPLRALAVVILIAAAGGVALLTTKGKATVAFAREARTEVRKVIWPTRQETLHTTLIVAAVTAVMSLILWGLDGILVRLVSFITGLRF
Sequence of wild-type SecA-SecYEG translocase (SecA bound to SecYEG-inverted inner membrane vesicles) (P0AG99 whole entry, chain 4 of 4): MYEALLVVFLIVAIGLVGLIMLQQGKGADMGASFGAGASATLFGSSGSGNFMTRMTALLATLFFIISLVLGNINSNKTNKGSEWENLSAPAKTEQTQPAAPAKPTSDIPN

A value given as a limit tells only on which side of the number the result lay.

Sequence of wild-type SecA-SecYEG translocase (SecA bound to SecYEG-inverted inner membrane vesicles) (E. coli) (P10408 whole entry, chain 1 of 4): as the sequence (P10408 whole entry, chain 1 of 4) above
Sequence of wild-type SecA-SecYEG translocase (SecA bound to SecYEG-inverted inner membrane vesicles) (E. coli) (P0AGA2 whole entry, chain 2 of 4, further chain): as the sequence (P0AGA2 whole entry, chain 2 of 4) above
Sequence of wild-type SecA-SecYEG translocase (SecA bound to SecYEG-inverted inner membrane vesicles) (E. coli) (P0AG96 whole entry, chain 3 of 4, further chain): as the sequence (P0AG96 whole entry, chain 3 of 4) above
Sequence of wild-type SecA-SecYEG translocase (SecA bound to SecYEG-inverted inner membrane vesicles) (E. coli) (P0AG99 whole entry, chain 4 of 4, further chain): as the sequence (P0AG99 whole entry, chain 4 of 4) above
Sequence of Lpp(noMTS) (P69776 21-78): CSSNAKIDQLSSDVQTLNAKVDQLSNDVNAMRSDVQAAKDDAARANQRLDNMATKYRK
Sequence of HdeA(noMTS) (P0AES9 22-110): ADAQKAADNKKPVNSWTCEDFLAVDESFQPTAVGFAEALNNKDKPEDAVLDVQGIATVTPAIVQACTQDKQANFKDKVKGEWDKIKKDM
Sequence of YncJ(noMTS) (P64459 23-76): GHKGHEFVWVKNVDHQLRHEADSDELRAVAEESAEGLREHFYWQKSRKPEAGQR
Sequence of SecA(LCt) (locked C-tail) bound to SecYEG-inverted membrane vesicles (E. coli) (P10408 whole entry, chain 1 of 4): as the sequence (P10408 whole entry, chain 1 of 4) above
Sequence of SecA(LCt) (locked C-tail) bound to SecYEG-inverted membrane vesicles (E. coli) (P0AGA2 whole entry, chain 2 of 4, further chain): as the sequence (P0AGA2 whole entry, chain 2 of 4) above
Sequence of SecA(LCt) (locked C-tail) bound to SecYEG-inverted membrane vesicles (E. coli) (P0AG96 whole entry, chain 3 of 4, further chain): as the sequence (P0AG96 whole entry, chain 3 of 4) above
Sequence of SecA(LCt) (locked C-tail) bound to SecYEG-inverted membrane vesicles (E. coli) (P0AG99 whole entry, chain 4 of 4, further chain): as the sequence (P0AG99 whole entry, chain 4 of 4) above
Sequence of PhoA (mature domain of proPhoA, signal peptide-less, urea-purified) (P00634 22-471): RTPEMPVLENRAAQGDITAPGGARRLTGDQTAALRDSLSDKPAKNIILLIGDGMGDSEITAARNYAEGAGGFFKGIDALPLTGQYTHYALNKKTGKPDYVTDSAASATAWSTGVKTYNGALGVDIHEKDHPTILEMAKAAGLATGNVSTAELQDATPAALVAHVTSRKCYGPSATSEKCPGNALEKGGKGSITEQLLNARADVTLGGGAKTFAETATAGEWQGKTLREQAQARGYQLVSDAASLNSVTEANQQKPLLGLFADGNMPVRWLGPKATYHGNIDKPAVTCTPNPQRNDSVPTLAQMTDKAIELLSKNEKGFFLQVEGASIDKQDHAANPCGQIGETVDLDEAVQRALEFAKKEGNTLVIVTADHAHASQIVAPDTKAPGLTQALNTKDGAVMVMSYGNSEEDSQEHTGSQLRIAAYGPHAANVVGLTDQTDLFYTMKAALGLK

“HdeA(noMTS) (from UniProt P0AES9 22-110) (natural protein)” had a Kd in test [1] of more than 20 µM. Still for that read-out and setting: as for “Lpp(noMTS) (from UniProt P69776 21-78) (natural protein)”, the figure is more than 20 µM. In test [2], “PhoA (mature domain of proPhoA, signal peptide-less, urea-purified) (from UniProt P00634 22-471) (natural protein)” yielded a fold reduction of affinity against the wild-type translocase of 18 fold. In turn, “YncJ(noMTS) (from UniProt P64459 23-76) (natural protein)” came in with a Kd in test [1] of more than 20 µM. In turn, “native PhoA (from UniProt P00634 22-471) (enzyme)” had a stoichiometry N in test [3] of 2. In test [4], MKQSTIALALLPLLFTPVTKARTPEMPVLE [signal peptide of proPhoA, proPhoA(1–30)] gave a Kd of approximately 3 µM.

As usually defined, the Kd is the equilibrium constant for the complex coming apart. The low end stands for tighter binding, the high end for weaker binding. As usually defined, the stoichiometry N is a count of units in the complex or per binding partner.

These data come from article PMC5412566 (The Journal of Cell Biology, 2017).
